Test results reported in paper PMC6651182, “Importance of the Choice of a Recombinant System to Produce Large Amounts of Functional Membrane Protein hERG” (International Journal of Molecular Sciences, 2019).

Tests used:
hERG-wt = hERG-wt (Homo sapiens, UniProt Q12809); assay: Two-electrode voltage clamp in Xenopus oocytes, inhibition of hERG-wt tail current; details: mean ± SEM, n = 7
Protocol: (§1) (A). Current-voltage relationship for hERG-wt and hERG(S1-coil). Currents measured at the end of a 4 seconds long depolarizing pulse (from −70 to 30 mV) were normalized to the maximal current for hERG-wt (n = 21) and hERG(S1-coil) (n = 19). (B). Steady-state voltage-dependence of activation. […] (C).
(§2) Stage V–VI oocytes were removed from female Xenopus under tricaine anaesthesia. […] After intensive washing with OR2 solution, oocytes were injected with RNA preparation (about 30 nL per oocyte) and recorded 2–5 days after injection. Currents were recorded at room temperature using the two-electrode voltage clamp method. Electrodes were pulled from borosilicate glass and filled with 3 M KCl. Currents were measured by a Geneclamp 500 amplifier (Molecular Devices, San Jose, CA, USA) and digitized by a Digidata 1200 converter (Molecular Devices) using Clampex 5 software (Molecular Devices). […] We determined the concentration to obtain the half maximal inhibition (IC50) by measuring the peak tail current recorded during the second pulse at −50 mV in the presence of increasing concentrations of inhibitor and normalized the value to the current measured in the absence of inhibitor. […] The significance of the difference between two results was determined using the unpaired Student’s test set at the 0.01 level.

hERG(S1-coil) [1] = target: T1, hERG(S1-coil) (Homo sapiens, UniProt Q12809, N598Q); assay: Electrophysiology on planar lipid bilayers with purified hERG(S1-coil) (stable HEK, DDM); format: biochemical; details: samples pre-incubated with 10 µM toxin; lipid bilayer; data not shown
T1 construct: hERG(362-675) + coiled-coil
Protocol: Crude membranes prepared from P. pastoris, Sf9 or stable HEK cells expressing hERG(S1-coil) were solubilized in 50 mM HEPES, pH 7.5, 300 mM KCl containing 1% DPC or DDM and 0.2% cholesteryl-hemisuccinate (CHS, Sigma Aldrich) at slow rotation at +4 °C for 1 h. Samples were centrifuged at 25,000 g for 15 min at +4 °C. […] After transferring to a column and washing the resin with 15 CV of 50 mM HEPES, pH 7.5, 300 mM KCl, 50 mM imidazole, 0.1% (w/v) DPC and 0.02% (w/v) CHS, hERG(S1-coil) was eluted with 250 mM imidazole in the same buffer. For purification of hERG(S1-coil) overexpressed in Sf9 cells in DPC, the supernatant was diluted 2-fold in 50 mM HEPES, pH 7.5 and transferred to a Strep-Tactin column (Strep-TactinSuperflow, IBA, Göttingen, Germany) at a ratio of 1 mL resin for 100 mL supernatant. […] Purified samples were analysed by SDS-PAGE and Western blot and protein concentrations determined by BCA assay.
Planar lipid bilayers were formed at room temperature by painting a solution of azolectin (Type IVS, Sigma Aldrich) at 45 mg/mL in decane across a 200 µm aperture in a polysulfonate cup (Warner Instruments, Hamden, CT, USA) separating two chambers. […] A total of 500 ng of chimeric hERG protein was added in the cis chamber and the resulting channel activity recorded for at least 2 min. […]

hERG(S1-coil) [2] = target: hERG(S1-coil) (Homo sapiens, UniProt Q12809); assay: Two-electrode voltage clamp in Xenopus oocytes, inhibition of hERG(S1-coil) tail current; details: mean ± SEM, n = 8
Protocol: as §1, §2

BeKm-1 (RPTDIKCSESYQCFPVCKSRFGKTNGRCVNGFCDCF; UniProt Q9BKB7 22-57, looked up)
IC50 (hERG-wt): 21.7 ± 2.76 nM
current at −100 mV (hERG(S1-coil) [1]): did not have any current
IC50 (hERG(S1-coil) [2]): 24.9 ± 3.77 nM
